Laboratory results taken from US20150266957A1.

Tests used:
Test in all cases: cell-based or functional assay
[1] = molecular target: human PROKR1 (human) (UniProt Q8TCW9)
[2] = molecular target: mouse PROKR1 (mouse (Mus musculus)) (UniProt Q9JKL1)
[3] = molecular target: cynomolgus monkey PROKR1 (cynomolgus monkey (Macaca fascicularis)) (UniProt G7PMD0)
[4] = molecular target: rat PROKR1 (rat (Rattus norvegicus)) (UniProt Q8R416)
Sequence of rat PROKR1 (rat (Rattus norvegicus)) (Q8R416 whole entry): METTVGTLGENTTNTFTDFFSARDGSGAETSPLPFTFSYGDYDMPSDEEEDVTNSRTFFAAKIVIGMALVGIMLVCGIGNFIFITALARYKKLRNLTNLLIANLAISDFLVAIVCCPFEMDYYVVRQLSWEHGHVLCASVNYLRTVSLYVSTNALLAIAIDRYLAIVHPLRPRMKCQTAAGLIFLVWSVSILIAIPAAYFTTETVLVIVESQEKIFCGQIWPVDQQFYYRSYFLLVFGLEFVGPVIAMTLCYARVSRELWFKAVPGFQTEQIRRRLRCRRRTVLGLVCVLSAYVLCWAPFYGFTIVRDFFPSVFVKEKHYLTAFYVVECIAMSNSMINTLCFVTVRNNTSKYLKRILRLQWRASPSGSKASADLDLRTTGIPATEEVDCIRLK

Sequence of cynomolgus monkey PROKR1 (cynomolgus monkey (Macaca fascicularis)) (G7PMD0 entry or part of it): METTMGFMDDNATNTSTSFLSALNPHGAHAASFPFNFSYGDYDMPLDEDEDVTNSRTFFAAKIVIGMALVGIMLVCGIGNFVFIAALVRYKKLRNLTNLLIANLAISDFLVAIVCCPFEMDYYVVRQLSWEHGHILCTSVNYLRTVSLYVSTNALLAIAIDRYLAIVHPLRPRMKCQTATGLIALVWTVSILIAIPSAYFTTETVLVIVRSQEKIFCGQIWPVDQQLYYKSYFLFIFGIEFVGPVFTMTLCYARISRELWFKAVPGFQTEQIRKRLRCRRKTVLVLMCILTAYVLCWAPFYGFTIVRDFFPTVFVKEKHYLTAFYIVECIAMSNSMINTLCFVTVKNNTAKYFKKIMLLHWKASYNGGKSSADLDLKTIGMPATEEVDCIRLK
Sequence of mouse PROKR1 (mouse (Mus musculus)) (Q9JKL1 whole entry): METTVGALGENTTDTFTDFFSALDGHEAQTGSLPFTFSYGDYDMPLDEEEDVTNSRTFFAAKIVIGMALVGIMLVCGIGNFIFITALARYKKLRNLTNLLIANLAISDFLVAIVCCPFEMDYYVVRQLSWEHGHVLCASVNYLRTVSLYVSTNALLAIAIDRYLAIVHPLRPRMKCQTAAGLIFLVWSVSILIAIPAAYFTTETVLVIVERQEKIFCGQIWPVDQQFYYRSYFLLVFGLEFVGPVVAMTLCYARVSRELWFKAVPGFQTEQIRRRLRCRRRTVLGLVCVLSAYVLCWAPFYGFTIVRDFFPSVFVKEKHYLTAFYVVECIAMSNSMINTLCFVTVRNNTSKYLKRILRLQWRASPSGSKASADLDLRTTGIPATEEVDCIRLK
Sequence of human PROKR1 (human) (Q8TCW9 whole entry): as the sequence (G7PMD0 entry or part of it) above, with A22V, A31T, G40S, V82I, I135V, R210K, F246V, N348D, A350V counted along it

B1: human prokineticin 2 (ligand, UniProt Q9HC23-2 28-108, looked up)
chain: AVITGACDKDSQCGGGMCCAVSIWVKSIRICTPMGKLGDSCHPLTRKVPFFGRRMHHTCPCLPGLACLRTSFNRFICLAQK
With B1 the EC50 (nM), calcium mobilization, 293/hPROKR1, Experiment 1 [1] was 30.7 nM, the EC50 (nM), calcium mobilization, 293/hPROKR1, Experiment 3 [1] was 0.6 nM and the Ligand EC50 (nM), calcium flux, CHO/mPROKR1 (induced) [2] was 9.6 nM. For the same binder, the Ligand EC50 (nM), calcium flux, CHO/mPROKR1 (non-induced) [2] was 0.8 nM and the EC50 (nM), calcium mobilization, 293/mfPROKR1, Experiment 3 [3] was 0.1 nM.

B2: human prokineticin 1 (ligand, UniProt P58294 20-105, looked up)
chain: AVITGACERDVQCGAGTCCAISLWLRGLRMCTPLGREGEECHPGSHKVPFFRKRKHHTCPCLPNLLCSRFPDGRYRCSMDLKNINF
For B2, the EC50, calcium flux, 293/rPROKR1, no antibody [4] was 0.7 nM, the EC50 (nM), calcium mobilization, 293/hPROKR1, Experiment 1 [1] was 6.2 nM and the EC50 (nM), calcium mobilization, 293/hPROKR1, Experiment 2 [1] was 14.3 nM. It also gave an EC50 (nM), calcium mobilization, 293/hPROKR1, Experiment 3 [1] of 2.2 nM, an EC50, calcium flux, 293/mPROKR1, no antibody [2] of 0.9 nM and a Ligand EC50 (nM), calcium flux, CHO/mPROKR1 (induced) [2] of 1.5 nM. For the same binder, the Ligand EC50 (nM), calcium flux, CHO/mPROKR1 (non-induced) [2] was 8.3 nM, the EC50 (nM), calcium mobilization, 293/mfPROKR1, Experiment 1 [3] was 69 nM and the EC50 (nM), calcium mobilization, 293/mfPROKR1, Experiment 3 [3] was 5 nM.
